According to US20240067747A1 (SHANGHAI HUAOTA BIOPHARMACEUTICAL, published 2024):

Assays:
[1] = target: T1, human CD73 on the cell surface of CHOK1-huCD73-3F4 cells (Huabo Biopharm) (human, UniProt P21589 27-549); experiment: cell-based or functional assay
T1 sequence (looked up): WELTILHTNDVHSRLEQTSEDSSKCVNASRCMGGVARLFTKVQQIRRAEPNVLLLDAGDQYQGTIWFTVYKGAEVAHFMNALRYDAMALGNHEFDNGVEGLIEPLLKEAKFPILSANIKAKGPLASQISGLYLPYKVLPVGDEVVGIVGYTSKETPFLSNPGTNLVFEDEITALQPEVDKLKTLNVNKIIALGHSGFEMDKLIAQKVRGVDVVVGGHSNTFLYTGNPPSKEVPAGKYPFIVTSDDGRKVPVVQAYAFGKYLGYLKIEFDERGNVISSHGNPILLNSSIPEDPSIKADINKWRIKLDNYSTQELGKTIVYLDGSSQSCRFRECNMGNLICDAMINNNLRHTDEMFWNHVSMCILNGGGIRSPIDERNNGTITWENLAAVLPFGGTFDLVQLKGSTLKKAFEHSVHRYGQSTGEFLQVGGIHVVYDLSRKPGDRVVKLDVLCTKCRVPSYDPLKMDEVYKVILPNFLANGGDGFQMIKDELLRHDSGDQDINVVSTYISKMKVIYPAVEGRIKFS

[2] = target: T1, human CD73 on the cell surface of …; experiment: flow cytometry on CHOK1-huCD73-3F4 cells, PE-goat anti-human-Fc
Procedure: All antigen-binding proteins were diluted to 30 μg/ml with 1% BSA in PBS solution (1% BSA/PBS) and then 3-fold diluted for 11 gradients. The diluted antigen-binding proteins were added to a 96-well U-shaped plate at 20 μL per well; and a negative control (with 1% BSA/PBS added only) was set up at the same time. The suspension of cells (CHOK1-huCD73-3F4, Huabo Biopharm) expressing human CD73 during the logarithmic growth phase were centrifuged (1000 rpm×5 min) to discard the culture medium; and the cells were resuspended with 1% BSA/PBS until the density of viable cells was 1×10⁶/mL, and were added, at 20 μL (2×10⁴ cells) per well, to the 96-well U-shaped plate with the […] antigen-binding protein to react for 30 min at room temperature. After reaction, the 96-well U-shaped plate was resuspended with 1% BSA/PBS, centrifuged (300 g×3 min) to discard the supernatant, and washed once in such a way. PE-goat anti-human-Fc (Jackson ImmunoResearch, #109-115098) diluted at 1:200 was added to react for 15 min in the dark at room temperature. After reaction, the 96-well U-shaped plate was resuspended with 1% BSA/PBS, centrifuged (300 g×3 min) to discard the supernatant, washed three times in such a way, and finally resuspended with 100 μL of 1% BSA/PBS for each wall; and the fluorescence intensity of a PE channel was detected with a flow cytometer (BD, #Cantoll).

B1: 900567 (human-mouse chimeric anti-CD73 antigen-binding protein expressed from 124A9 variable regions) (antibody, V domains shown)
VH: QVQLQQPGAELVKPGASVKLSCKASGYTFTSYWIHWVKQRPGQGLDWIGMIHPNSGSTYYNEKFKSKATLTVDKSSSTAYMQLSSLTSEDSAVYYCARYYGSDYEWYFDVWGTGTTVTVSS
VL: DIVMTQSQKFMSTSVGDRVSITCKASQNVRTAVVWYQQNPGQSPKALIYLASNRHTGVPDRFTGSGSGTDFTLTISNVHSEDLADYFCLQHWNYPYTFGGGTKLEIK
**Q.** B1 was tested. Which “EC50 of inhibition of the enzyme activity of CD73 on cell membrane (AMP/ATP, CellTiter-Glo)” value [1] did it give?
**A.** 0.0749 mg/L

**Q.** What about the EC50 [2] of the same binder?
**A.** 0.021 mg/L
